Measured values from patent US20190169635.

Tested on: alpha-1 antitrypsin (AAT) in the serum of wild-type C57BL/6 mice

## neutrophil elastase
  relative neutrophil elastase activity (colorimetric kinetics of substrate degradation) after incubation with serum: serum from wild-type male and female C57BL/6 mice exhibited a high capacity to inhibit neutrophil elastase, serum from the three founders showed a reduced capacity to do so
